Measured values as given in patent US20100233154A1, “TARGETED BINDING AGENTS DIRECTED TO HEPARANASE AND USES THEREOF 463” (MedImmune Limited, priority 2008, published 2010).

Molecular target: cynomolgus heparanase (cynomolgus)
Test: cross species capture ELISA, heparanase captured by rabbit anti-heparanase antibody, exhaustive supernatant 1:5, anti-human IgG Fc detection

cynomolgus heparanase (cynomolgus), sequence (chain, as listed by the source): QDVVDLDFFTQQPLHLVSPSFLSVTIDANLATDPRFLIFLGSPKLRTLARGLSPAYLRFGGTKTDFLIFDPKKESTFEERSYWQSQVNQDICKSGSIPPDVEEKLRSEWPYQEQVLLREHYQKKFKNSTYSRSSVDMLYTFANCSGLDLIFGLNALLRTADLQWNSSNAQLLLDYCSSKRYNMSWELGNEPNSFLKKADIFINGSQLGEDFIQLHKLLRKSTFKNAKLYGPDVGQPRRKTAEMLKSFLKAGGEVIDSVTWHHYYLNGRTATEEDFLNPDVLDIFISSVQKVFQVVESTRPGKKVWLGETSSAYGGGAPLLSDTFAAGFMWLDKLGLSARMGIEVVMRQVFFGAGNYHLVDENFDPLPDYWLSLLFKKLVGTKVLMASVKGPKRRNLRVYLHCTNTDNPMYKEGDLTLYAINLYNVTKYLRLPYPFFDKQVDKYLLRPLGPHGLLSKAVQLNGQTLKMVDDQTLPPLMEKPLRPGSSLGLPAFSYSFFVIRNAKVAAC

- OD, binding to heparanase (Cyno): 0.11 OD units
B1: monoclonal antibody 15A1.2 (antibody, V domains shown)
VH: QVQLVQSGAEVKKPGASVKVSCKVSGYTLTELSMHWVRQAPGKGLEWMGGFDPEDGETIFAQKFQGRVTMTEDTSTDTAYMELSSLRSEDTAVYYCATGLRFLEWFLWGWDVWGQGTTVTVSS
VL: DIQMTQSPSSVSASVGDRVTITCRASQGISNWLAWYQQTPGKAPQLLIYGASSLQSGVPSRFSGSGSGTDFTLTISSLQPEDFATYYCQQADSFPPTFGQGTKVEIK
